From US20140213531A1 (POLYPHOR, published 2014)
Bridges are numbered along the chain shown (N, C = ends). [ ]: non-standard residue; d: D form. Gly(octyl) = CCCCCCCC[C@H](N)C(=O)O; Pro(4NHCOPhe) = not defined here; Cha = N[C@@H](CC1CCCCC1)C(=O)O

T1: CathepsinG, from human neutrophils (human, UniProt P08311 21-244)
T1 construct: purified natural enzyme, bought
T1 sequence (looked up): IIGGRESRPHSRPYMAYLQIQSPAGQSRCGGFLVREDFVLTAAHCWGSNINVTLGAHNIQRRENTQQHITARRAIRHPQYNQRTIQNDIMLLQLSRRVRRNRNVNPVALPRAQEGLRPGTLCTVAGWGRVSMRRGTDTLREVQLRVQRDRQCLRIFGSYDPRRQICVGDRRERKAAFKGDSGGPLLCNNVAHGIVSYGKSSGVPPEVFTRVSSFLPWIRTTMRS

T2: Chymase, from human skin (human, UniProt P23946 22-247)
T2 construct: purified natural enzyme, bought
T2 sequence (looked up): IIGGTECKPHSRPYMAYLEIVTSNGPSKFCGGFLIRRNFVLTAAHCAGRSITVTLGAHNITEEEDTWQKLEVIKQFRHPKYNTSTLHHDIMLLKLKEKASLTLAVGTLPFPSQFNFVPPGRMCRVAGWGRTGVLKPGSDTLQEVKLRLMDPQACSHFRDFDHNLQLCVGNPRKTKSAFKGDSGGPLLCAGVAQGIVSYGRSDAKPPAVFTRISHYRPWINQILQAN


Key:
Experiment in all cases: enzyme inhibition, pNA substrate
[1] = target: T3, Coagulation Factor Xa, from uman plasma (human, UniProt P00742 41-179; P00742 235-488, limits assumed)
T3 construct: purified natural enzyme, bought; also called FXa
T3 sequence (P00742 41-179 limits assumed, chain 1 of 2): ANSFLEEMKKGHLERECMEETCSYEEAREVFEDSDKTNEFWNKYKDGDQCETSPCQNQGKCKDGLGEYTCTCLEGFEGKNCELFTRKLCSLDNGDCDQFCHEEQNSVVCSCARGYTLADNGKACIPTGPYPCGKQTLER
T3 sequence (P00742 235-488 limits assumed, chain 2 of 2): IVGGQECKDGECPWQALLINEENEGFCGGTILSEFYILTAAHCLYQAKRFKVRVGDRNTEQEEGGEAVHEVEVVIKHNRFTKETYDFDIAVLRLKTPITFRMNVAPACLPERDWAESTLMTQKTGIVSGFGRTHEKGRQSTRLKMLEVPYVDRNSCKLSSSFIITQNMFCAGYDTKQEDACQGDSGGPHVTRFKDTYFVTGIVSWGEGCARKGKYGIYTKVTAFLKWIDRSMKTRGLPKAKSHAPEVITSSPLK

[2] = target: T1, CathepsinG, from human neutrophils
[3] = target: T4, Urokinase from human urine (human, UniProt P00749 21-431, limits assumed)
T4 construct: purified natural enzyme, bought

[4] = target: Thrombin, from Human Plasma, high activity (human, UniProt P00734 328-622)
Chymase, from human skin = target: T2, Chymase, from human skin
[5] = target: T5, Chymotrypsin, from human pancreas (human, UniProt P17538 19-263)
T5 construct: purified natural enzyme, bought
T5 sequence (P17538 19-263): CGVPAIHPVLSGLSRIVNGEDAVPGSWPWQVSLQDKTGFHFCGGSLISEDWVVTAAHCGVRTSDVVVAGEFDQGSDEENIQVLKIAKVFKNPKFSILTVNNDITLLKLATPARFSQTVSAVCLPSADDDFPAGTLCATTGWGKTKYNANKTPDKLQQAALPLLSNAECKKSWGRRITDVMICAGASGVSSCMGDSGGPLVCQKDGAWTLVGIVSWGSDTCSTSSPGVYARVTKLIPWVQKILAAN

[6] = target: T6, Trypsin, Iodination grade, from human pancreas (human, UniProt P07477 24-247)
T6 construct: purified natural enzyme, bought

[7] = target: T7, Tryptase, from human lung (human, UniProt Q15661 31-275, limits assumed)
T7 construct: purified natural enzyme, bought
T7 sequence (Q15661 31-275 limits assumed): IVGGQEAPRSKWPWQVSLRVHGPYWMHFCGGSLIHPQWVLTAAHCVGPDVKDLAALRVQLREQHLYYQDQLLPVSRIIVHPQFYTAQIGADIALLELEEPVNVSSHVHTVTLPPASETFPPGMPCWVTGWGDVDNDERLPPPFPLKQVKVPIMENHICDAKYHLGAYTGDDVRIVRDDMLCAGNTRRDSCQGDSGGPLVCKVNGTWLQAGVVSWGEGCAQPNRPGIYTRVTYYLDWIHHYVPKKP

Binder	% inhibition at 100 µM [1] [%]	% inhibition at 100 µM [2] [%]	% inhibition at 100 µM [3] [%]	% inhibition at 100 µM [4] [%]	% inhibition at 100 µM (Chymase, from human skin) [%]	% inhibition at 100 µM [5] [%]	% inhibition at 100 µM [6] [%]	% inhibition at 100 µM [7] [%]
XCTASXPPQCQ (HELM PEPTIDE1{[O=C([C@H](CCc1ccccc1)N[*:1])[*:2]].C.T.A.S.[CCCCCCCC[C@H](N[*:1])C(=O)[*:2]].P.P.Q.C.Q.[dP].P}$PEPTIDE1,PEPTIDE1,2:R3-10:R3|PEPTIDE1,PEPTIDE1,1:R1-13:R2$$$V2.0; SMILES CCCCCCCC[C@@H]1NC(=O)[C@H](CO)NC(=O)[C@H](C)NC(=O)[C@H]([C@@H](C)O)NC(=O)[C@@H]2CSSC[C@H](NC(=O)[C@H](CCC(N)=O)NC(=O)[C@@H]3CCCN3C(=O)[C@@H]3CCCN3C1=O)C(=O)N[C@@H](CCC(N)=O)C(=O)N1CCC[C@@H]1C(=O)N1CCC[C@H]1C(=O)N[C@@H](CCc1ccccc1)C(=O)N2) [Example 153]	11	56	16	16	0	84		
XCTASXPPQCF (HELM PEPTIDE1{[O=C([C@H](CCc1ccccc1)N[*:1])[*:2]].C.T.A.S.[Cha].P.P.Q.C.F.[dP].P}$PEPTIDE1,PEPTIDE1,2:R3-10:R3|PEPTIDE1,PEPTIDE1,1:R1-13:R2$$$V2.0; SMILES C[C@@H]1NC(=O)[C@H]([C@@H](C)O)NC(=O)[C@@H]2CSSC[C@H](NC(=O)[C@H](CCC(N)=O)NC(=O)[C@@H]3CCCN3C(=O)[C@@H]3CCCN3C(=O)[C@H](CC3CCCCC3)NC(=O)[C@H](CO)NC1=O)C(=O)N[C@@H](Cc1ccccc1)C(=O)N1CCC[C@@H]1C(=O)N1CCC[C@H]1C(=O)N[C@@H](CCc1ccccc1)C(=O)N2, also called Ex. 155) [Example 155]		52	12	19		83	18	30
cyclo([Gly(octyl)]CTAS[Cha]P[Pro(4NHCOPhe)]QCQ[dP]P) (disulfide 2-10; not fully specified; reading uncertain, also called Ex. 160) [Example 160]		55	14	23		94		30
XCTASIPPQCY (HELM PEPTIDE1{[CCCCCCCC[C@H](N[*:1])C(=O)[*:2]].C.T.A.S.I.P.P.Q.C.Y.[dP].Q}$PEPTIDE1,PEPTIDE1,2:R3-10:R3|PEPTIDE1,PEPTIDE1,1:R1-13:R2$$$V2.0; SMILES CCCCCCCC[C@@H]1NC(=O)[C@H](CCC(N)=O)NC(=O)[C@H]2CCCN2C(=O)[C@H](Cc2ccc(O)cc2)NC(=O)[C@@H]2CSSC[C@H](NC1=O)C(=O)N[C@@H]([C@@H](C)O)C(=O)N[C@@H](C)C(=O)N[C@@H](CO)C(=O)N[C@@H]([C@@H](C)CC)C(=O)N1CCC[C@H]1C(=O)N1CCC[C@H]1C(=O)N[C@@H](CCC(N)=O)C(=O)N2, also called Ex. 177) [Example 177]		54	12	17		86		15
XCTASXPPQCQ (HELM PEPTIDE1{[O=C([C@H](CCc1ccccc1)N[*:1])[*:2]].C.T.A.S.[Cha].P.P.Q.C.Q.[dP].P}$PEPTIDE1,PEPTIDE1,2:R3-10:R3|PEPTIDE1,PEPTIDE1,1:R1-13:R2$$$V2.0; SMILES C[C@@H]1NC(=O)[C@H]([C@@H](C)O)NC(=O)[C@@H]2CSSC[C@H](NC(=O)[C@H](CCC(N)=O)NC(=O)[C@@H]3CCCN3C(=O)[C@@H]3CCCN3C(=O)[C@H](CC3CCCCC3)NC(=O)[C@H](CO)NC1=O)C(=O)N[C@@H](CCC(N)=O)C(=O)N1CCC[C@@H]1C(=O)N1CCC[C@H]1C(=O)N[C@@H](CCc1ccccc1)C(=O)N2) [Example 158]		55	10		0	93		13
XCTASXPPQCQ (HELM PEPTIDE1{[CCCCCCCC[C@H](N[*:1])C(=O)[*:2]].C.T.A.S.[CCCCCCCC[C@H](N[*:1])C(=O)[*:2]].P.P.Q.C.Q.[dP].P}$PEPTIDE1,PEPTIDE1,2:R3-10:R3|PEPTIDE1,PEPTIDE1,1:R1-13:R2$$$V2.0; SMILES CCCCCCCC[C@@H]1NC(=O)[C@@H]2CCCN2C(=O)[C@H]2CCCN2C(=O)[C@H](CCC(N)=O)NC(=O)[C@@H]2CSSC[C@H](NC1=O)C(=O)N[C@@H]([C@@H](C)O)C(=O)N[C@@H](C)C(=O)N[C@@H](CO)C(=O)N[C@@H](CCCCCCCC)C(=O)N1CCC[C@H]1C(=O)N1CCC[C@H]1C(=O)N[C@@H](CCC(N)=O)C(=O)N2, also called Ex. 148) [Example 148]		52	12	32		91		30
XCTASXPPQCY (HELM PEPTIDE1{[Nle].C.T.A.S.[Cha].P.P.Q.C.Y.[dP].P}$PEPTIDE1,PEPTIDE1,2:R3-10:R3|PEPTIDE1,PEPTIDE1,1:R1-13:R2$$$V2.0; SMILES CCCC[C@@H]1NC(=O)[C@@H]2CCCN2C(=O)[C@H]2CCCN2C(=O)[C@H](Cc2ccc(O)cc2)NC(=O)[C@@H]2CSSC[C@H](NC1=O)C(=O)N[C@@H]([C@@H](C)O)C(=O)N[C@@H](C)C(=O)N[C@@H](CO)C(=O)N[C@@H](CC1CCCCC1)C(=O)N1CCC[C@H]1C(=O)N1CCC[C@H]1C(=O)N[C@@H](CCC(N)=O)C(=O)N2, also called Ex. 141) [Example 141]	15.3	63.4		0	0	72.9	0	44.5
XCTASIPPQCQ (HELM PEPTIDE1{[O=C([C@H](CCc1ccccc1)N[*:1])[*:2]].C.T.A.S.I.P.P.Q.C.Q.[dP].P}$PEPTIDE1,PEPTIDE1,2:R3-10:R3|PEPTIDE1,PEPTIDE1,1:R1-13:R2$$$V2.0; SMILES CC[C@H](C)[C@@H]1NC(=O)[C@H](CO)NC(=O)[C@H](C)NC(=O)[C@H]([C@@H](C)O)NC(=O)[C@@H]2CSSC[C@H](NC(=O)[C@H](CCC(N)=O)NC(=O)[C@@H]3CCCN3C(=O)[C@@H]3CCCN3C1=O)C(=O)N[C@@H](CCC(N)=O)C(=O)N1CCC[C@@H]1C(=O)N1CCC[C@H]1C(=O)N[C@@H](CCc1ccccc1)C(=O)N2, also called Ex. 143) [Example 143]	0	28		12	0	91	12	18
XETASIPPQKY (HELM PEPTIDE1{[Nle].E.T.A.S.I.P.P.Q.K.Y.[dP].P}$PEPTIDE1,PEPTIDE1,1:R1-13:R2$$$V2.0; SMILES CCCC[C@@H]1NC(=O)[C@@H]2CCCN2C(=O)[C@H]2CCCN2C(=O)[C@H](Cc2ccc(O)cc2)NC(=O)[C@H](CCCCN)NC(=O)[C@H](CCC(N)=O)NC(=O)[C@@H]2CCCN2C(=O)[C@@H]2CCCN2C(=O)[C@H]([C@@H](C)CC)NC(=O)[C@H](CO)NC(=O)[C@H](C)NC(=O)[C@H]([C@@H](C)O)NC(=O)[C@H](CCC(=O)O)NC1=O) [Example 104]		53.5	0		0		0	0
